From patent US20220041658A1 (PROTAGONIST THERAPEUTICS, published 2022)
Starred links: 1 amine or outer side, 2 acyl side, 3 side chain; linkers in the order of their positions; H or OH if unused. Positions of bridges follow the written chain, without caps; N, C: chain ends. Non-standard residues stand in square brackets, D forms with d. Trp(7-nPr) = CCCc1cccc2c(C[C@H](N[*:1])C(=O)[*:2])c[nH]c12; Trp(7-Me) = Cc1cccc2c(C[C@H](N)C(=O)O)c[nH]c12; Trp(1-Me) = Cn1cc(C[C@H](N)C(=O)O)c2ccccc21; 2Nal = N[C@@H](Cc1ccc2ccccc2c1)C(=O)O; AEF = NCCOc1ccc(C[C@H](N)C(=O)O)cc1; Cit = NC(=O)NCCC[C@H](N)C(=O)O; Pen = CC(C)(S)[C@H](N)C(=O)O; αMeK = C[C@](N)(CCCCN)C(=O)O; βAla = NCCC(=O)O

T1: interleukin-23 receptor (IL-23R) (human, UniProt Q5VWK5 24-629)
T1 sequence (looked up): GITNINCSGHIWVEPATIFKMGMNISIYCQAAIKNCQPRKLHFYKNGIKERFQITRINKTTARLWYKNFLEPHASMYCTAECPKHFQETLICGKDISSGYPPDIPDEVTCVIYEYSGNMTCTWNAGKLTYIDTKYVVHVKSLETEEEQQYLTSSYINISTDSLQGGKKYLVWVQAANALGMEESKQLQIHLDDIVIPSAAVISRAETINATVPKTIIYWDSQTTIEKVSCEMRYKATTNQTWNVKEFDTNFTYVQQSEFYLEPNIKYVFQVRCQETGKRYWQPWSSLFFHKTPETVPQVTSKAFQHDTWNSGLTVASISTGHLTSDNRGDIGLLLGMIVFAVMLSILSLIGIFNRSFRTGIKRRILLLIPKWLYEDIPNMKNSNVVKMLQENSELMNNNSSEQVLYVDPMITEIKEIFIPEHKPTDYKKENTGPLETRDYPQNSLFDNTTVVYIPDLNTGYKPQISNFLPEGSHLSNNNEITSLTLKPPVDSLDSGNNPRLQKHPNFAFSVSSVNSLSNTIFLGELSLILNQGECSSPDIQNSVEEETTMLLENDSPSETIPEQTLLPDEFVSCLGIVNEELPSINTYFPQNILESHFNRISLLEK

B1: Peptide of SEQ ID NO: 277 (peptide)
peptide: XNTXQXXXXKNX
modifications: Ac-[Pen]-N-T-[W(7-Me)]-Q-[Pen]-Phe[4-(2-aminoethoxy)]-[2-Nal]-[Acbc]-[Lys(Ac)]-N-[bA]-NH2; Pen-Pen disulfide
B2: Peptide of SEQ ID NO: 271 (peptide)
peptide: XNTXKXXXXKSX
modifications: Ac-[Pen]-N-T-[W(7-Me)]-[Lys(Ac)]-[Pen]-Phe[4-(2-aminoethoxy)]-[2-Nal]-[a-MeLys]-[Lys(Ac)]-S-[bA]-NH2; Pen-Pen disulfide
B3: Peptide of SEQ ID NO: 281 (peptide)
peptide: Ac-[Pen]NT[Trp(7-Me)][Cit][Pen][AEF][2Nal][αMeK][Cit][βAla][βAla]-NH2
modifications: disulfide 1-6
SMILES: CC(=O)N[C@@H]1C(=O)N[C@@H](CC(N)=O)C(=O)N[C@@H]([C@@H](C)O)C(=O)N[C@@H](Cc2c[nH]c3c(C)cccc23)C(=O)N[C@@H](CCCNC(N)=O)C(=O)N[C@H](C(=O)N[C@@H](Cc2ccc(OCCN)cc2)C(=O)N[C@@H](Cc2ccc3ccccc3c2)C(=O)N[C@@](C)(CCCCN)C(=O)N[C@@H](CCCNC(N)=O)C(=O)NCCC(=O)NCCC(N)=O)C(C)(C)SSC1(C)C
B4: Peptide of SEQ ID NO: 273 (peptide)
peptide: XNTXKXXXXEXX
modifications: Ac-[Pen]-N-T-[W(7-Me)]-[Lys(Ac)]-[Pen]-Phe[4-(2-aminoethoxy)]-[2-Nal]-[a-MeLys]-E-[bA]-[bA]-NH2; Pen-Pen disulfide
B5: Peptide of SEQ ID NO: 274 (peptide)
peptide: XNTXQXXXXKNX
modifications: Ac-[Pen]-N-T-[W(7-Me)]-Q-[Pen]-Phe[4-(2-aminoethoxy)]-[2-Nal]-[Achc]-[Lys(Ac)]-N-[bA]-NH2; Pen-Pen disulfide
B6: Peptide of SEQ ID NO: 255 (peptide)
peptide: XNTXKXXXXKNI
modifications: Ac-[Pen]-NT-[W(7-Me)]-[Lys(Ac)]-[Pen]-Phe[4-(2-aminoethoxy)]-[2-Nal]-[a-MeLys]-[Lys(Ac)]-N-I-NH2; Pen-Pen disulfide
B7: Peptide of SEQ ID NO: 269 (peptide)
peptide: XNTXQXXXXKLX
modifications: Ac-[Pen]-N-T-[W(7-Me)]-Q-[Pen]-Phe[4-(2-aminoethoxy)]-[2-Nal]-[a-MeLys]-[Lys(Ac)]-L-[bA]-NH2; Pen-Pen disulfide
B8: Peptide of SEQ ID NO: 275 (peptide)
peptide: XNTXQXXXXKNX
modifications: Ac-[Pen]-N-T-[W(7-Me)]-Q-[Pen]-Phe[4-(2-aminoethoxy)]-[2-Nal]-[Spiral_Pip]-[Lys(Ac)]-N-[bA]-NH2; Pen-Pen disulfide
B9: Peptide of SEQ ID NO: 260 (peptide)
peptide: Ac-[Pen]NT[Trp(7-Me)][Cit][Pen][AEF][2Nal][αMeK]K(Ac)NS-NH2
modifications: disulfide 1-6
SMILES: CC(=O)NCCCC[C@H](NC(=O)[C@](C)(CCCCN)NC(=O)[C@H](Cc1ccc2ccccc2c1)NC(=O)[C@H](Cc1ccc(OCCN)cc1)NC(=O)[C@H]1NC(=O)[C@H](CCCNC(N)=O)NC(=O)[C@H](Cc2c[nH]c3c(C)cccc23)NC(=O)[C@H]([C@@H](C)O)NC(=O)[C@H](CC(N)=O)NC(=O)[C@@H](NC(C)=O)C(C)(C)SSC1(C)C)C(=O)N[C@@H](CC(N)=O)C(=O)N[C@@H](CO)C(N)=O
B10: Peptide of SEQ ID NO: 285 (peptide)
peptide: Ac-[Pen]NT[Trp(7-nPr)]K(Ac)[Pen][AEF][2Nal][αMeK]K(Ac)N[dL]-NH2
modifications: disulfide 1-6
SMILES: CCCc1cccc2c(C[C@@H]3NC(=O)[C@H]([C@@H](C)O)NC(=O)[C@H](CC(N)=O)NC(=O)[C@@H](NC(C)=O)C(C)(C)SSC(C)(C)[C@@H](C(=O)N[C@@H](Cc4ccc(OCCN)cc4)C(=O)N[C@@H](Cc4ccc5ccccc5c4)C(=O)N[C@@](C)(CCCCN)C(=O)N[C@@H](CCCCNC(C)=O)C(=O)N[C@@H](CC(N)=O)C(=O)N[C@H](CC(C)C)C(N)=O)NC(=O)[C@H](CCCCNC(C)=O)NC3=O)c[nH]c12
B11: Peptide of SEQ ID NO: 250 (peptide)
peptide: XNTXKXXXXKNV
modifications: Ac-[Pen]-NT-[W(7-Me)]-[Lys(Ac)]-[Pen]-Phe[4-(2-aminoethoxy)]-[2-Nal]-[a-MeLys]-[Lys(Ac)]-N-V-NH2; Pen-Pen disulfide
B12: Peptide of SEQ ID NO: 280 (peptide)
peptide: Ac-[Pen]NTX[Cit][Pen][AEF][2Nal][αMeK]K(Ac)[βAla][βAla]-NH2
modifications: disulfide 1-6; not fully specified (residue 4); printed as Ac-[Pen]-N-T-[W(1-Me)]-[Cit]-[Pen]-Phe[4-(2-aminoethoxy)]-[2-Nal]-[a-MeLys]-[Lys(Ac)]-[bA]-[bA]-NH2, Pen-Pen disulfide
B13: Peptide of SEQ ID NO: 263 (peptide)
peptide: Ac-[Pen]NT[Trp(7-Me)][Cit][Pen][AEF][2Nal][αMeK]K(Ac)N[dT]-NH2
modifications: disulfide 1-6
SMILES: CC(=O)NCCCC[C@H](NC(=O)[C@](C)(CCCCN)NC(=O)[C@H](Cc1ccc2ccccc2c1)NC(=O)[C@H](Cc1ccc(OCCN)cc1)NC(=O)[C@H]1NC(=O)[C@H](CCCNC(N)=O)NC(=O)[C@H](Cc2c[nH]c3c(C)cccc23)NC(=O)[C@H]([C@@H](C)O)NC(=O)[C@H](CC(N)=O)NC(=O)[C@@H](NC(C)=O)C(C)(C)SSC1(C)C)C(=O)N[C@@H](CC(N)=O)C(=O)N[C@@H](C(N)=O)[C@H](C)O

Target: T1, interleukin-23 receptor (IL-23R)
Experiment: cell-based or functional assay

Row | Binder | pStat3 HTRF IC50 [nM]
1 | B1 | 0.639
2 | B2 | 1.91
3 | B3 | 17.7
4 | B4 | 2.69
5 | B5 | 0.484
6 | B6 | 2.5
7 | B7 | 10.1
8 | B8 | 2.17
9 | B9 | 0.699
10 | B10 | 0.849
11 | Ac-[Pen]NT[Trp(7-Me)]Q[Pen][AEF][Trp(1-Me)][αMeK]K(Ac)N[βAla]-NH2 (disulfide 1-6) [Peptide of SEQ ID NO: 283] | 4.52
12 | B11 | 1.82
13 | B12 | 17.1
14 | Ac-[Pen]NT[Trp(7-Me)][Cit][Pen][AEF][2Nal][αMeK]K(Ac)N[dR]-NH2 (disulfide 1-6) [Peptide of SEQ ID NO: 256] | 0.754
15 | B13 | 0.603
